Consider eight molecules from patent publication US20150044236A1.

The target of experiment [1] is human Kv1.3 voltage-gated potassium channel (human) (UniProt P22001). The experiment is described as follows: cell-based or functional assay.
Experiment [2] concerns the target human Kv1.1 voltage-gated potassium channel (human) (UniProt Q09470). The experiment is described as follows: cell-based or functional assay.
Experiment [3] concerns the target DNP(3)-BSA (2,4-dinitrophenol conjugated to bovine serum albumin, 3 DNP moieties per BSA) (bovine) (UniProt P02769). As to the kind of experiment: BIAcore SPR; antibody captured on anti-human IgG Fc surface, DNP(3)-BSA injected (0.78-100 nM); apparent constants.
For experiment [4] the target is unchanged. The experiment is described as follows: BIAcore SPR; antibody captured on anti-human IgG Fc surface, DNP(3)-BSA injected (0.78-100 nM); apparent constants; DNP(3)-BSA, not DNP(31)-BSA. For orientation: SPR reads the build-up and loss of mass on a sensor chip optically.
Experiment [5] addresses DNP(31)-BSA (2,4-dinitrophenol conjugated to bovine serum albumin, 31 DNP moieties per BSA) (bovine) (UniProt P02769). As to the kind of experiment: BIAcore SPR; antibody captured on anti-human IgG Fc surface, DNP(31)-BSA injected (0.78-100 nM); apparent constants.
The target is the same in experiment [6]. The experiment is described as follows: BIAcore SPR; antibody captured on anti-human IgG Fc surface, DNP(31)-BSA injected (0.39-50 nM); apparent constants.

No end group written: not given here.

Sequence of human Kv1.1 voltage-gated potassium channel (human) (Q09470 whole entry): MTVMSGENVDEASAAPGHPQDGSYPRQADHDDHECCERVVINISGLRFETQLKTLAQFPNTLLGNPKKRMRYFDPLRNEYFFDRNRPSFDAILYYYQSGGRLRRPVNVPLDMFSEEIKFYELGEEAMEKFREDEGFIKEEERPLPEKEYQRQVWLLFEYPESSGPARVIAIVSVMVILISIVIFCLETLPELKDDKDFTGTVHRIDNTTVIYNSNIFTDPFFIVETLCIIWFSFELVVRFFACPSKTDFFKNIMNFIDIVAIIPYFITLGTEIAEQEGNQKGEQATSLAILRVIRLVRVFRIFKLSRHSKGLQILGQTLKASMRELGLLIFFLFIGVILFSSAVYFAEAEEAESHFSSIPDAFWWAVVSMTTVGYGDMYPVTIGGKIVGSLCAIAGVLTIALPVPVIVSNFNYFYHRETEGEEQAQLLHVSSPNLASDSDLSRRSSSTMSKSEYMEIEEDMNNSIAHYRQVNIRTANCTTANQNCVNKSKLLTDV
Sequence of DNP(3)-BSA (2,4-dinitrophenol conjugated to bovine serum albumin, 3 DNP moieties per BSA) (bovine) (P02769 25-607 limits assumed): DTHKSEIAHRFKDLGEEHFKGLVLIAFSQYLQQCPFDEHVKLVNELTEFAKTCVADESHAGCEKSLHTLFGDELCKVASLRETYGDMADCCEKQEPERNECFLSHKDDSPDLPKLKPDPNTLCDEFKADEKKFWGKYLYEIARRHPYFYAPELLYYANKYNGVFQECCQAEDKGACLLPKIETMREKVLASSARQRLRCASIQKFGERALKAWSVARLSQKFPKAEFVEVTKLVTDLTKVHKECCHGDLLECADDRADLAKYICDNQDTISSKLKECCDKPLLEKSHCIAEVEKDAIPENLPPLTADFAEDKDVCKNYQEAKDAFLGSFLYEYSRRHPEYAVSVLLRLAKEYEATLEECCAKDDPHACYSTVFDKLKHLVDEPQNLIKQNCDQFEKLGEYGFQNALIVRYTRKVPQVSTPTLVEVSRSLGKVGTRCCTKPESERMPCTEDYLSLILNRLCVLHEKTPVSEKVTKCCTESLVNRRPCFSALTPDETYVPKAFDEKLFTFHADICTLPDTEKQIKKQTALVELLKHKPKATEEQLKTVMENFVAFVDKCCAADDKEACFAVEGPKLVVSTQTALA
Sequence of DNP(31)-BSA (2,4-dinitrophenol conjugated to bovine serum albumin, 31 DNP moieties per BSA) (bovine) (P02769 25-607 limits assumed): as above
Sequence of human Kv1.3 voltage-gated potassium channel (human) (P22001 whole entry): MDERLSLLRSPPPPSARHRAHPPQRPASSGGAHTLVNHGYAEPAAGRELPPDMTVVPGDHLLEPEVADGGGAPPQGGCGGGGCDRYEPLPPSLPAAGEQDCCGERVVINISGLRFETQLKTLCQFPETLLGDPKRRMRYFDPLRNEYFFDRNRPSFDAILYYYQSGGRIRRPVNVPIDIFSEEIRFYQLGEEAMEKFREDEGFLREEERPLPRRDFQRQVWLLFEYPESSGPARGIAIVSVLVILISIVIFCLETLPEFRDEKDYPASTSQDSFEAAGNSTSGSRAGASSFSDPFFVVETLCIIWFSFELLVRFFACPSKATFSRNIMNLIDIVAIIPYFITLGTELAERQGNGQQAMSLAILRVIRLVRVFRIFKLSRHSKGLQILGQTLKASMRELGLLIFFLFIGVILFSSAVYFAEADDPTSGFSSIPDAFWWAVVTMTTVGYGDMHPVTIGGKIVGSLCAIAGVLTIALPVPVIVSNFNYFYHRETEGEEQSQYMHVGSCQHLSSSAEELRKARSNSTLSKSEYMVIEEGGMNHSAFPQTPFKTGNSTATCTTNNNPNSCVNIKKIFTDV

In experiment [1], “Monovalent Fc/Fc-L10-ShK[2-35] heterodimer (IgG1) (Fc fusion)” yielded a Potency Relative to ShK (WB, IL2) of 32.1 fold; a WB (IFNg) IC50 of 5.2 nM; a WB (IL-2) IC50 of 2.15 nM.
The molecule 20 kDa-PEG-[Lys16]ShK (peptide) came in with a Potency Relative to ShK (WB, IL2) in experiment [1] of 1.37 fold.
In experiment [1], 20 kDa-PEG-ShK (peptide) returned a Kv1.3 IC50 (asterisk: whole cell patch clamp) of 0.299 nM and a Potency Relative to ShK (WB, IL2) of 5.67 fold. The Kv1.1 IC50 (asterisk: whole cell patch clamp) in experiment [2] was 1.63 nM.

B1: Bivalent Fc-L10-ShK[2-35] homodimer (IgG1) (Fc fusion)
chain: GGGGSGGGGSSCIDTIPKSRCTAFQCKHSMKYRLSFCRKTCGTC
modifications: not fully specified (N-terminus, bridges); ends and bridges not checked; also: bivalent homodimer via IgG1 Fc
Regarding B1, in experiment [1], the Kv1.3 IC50 (asterisk: whole cell patch clamp) came to 0.116 nM; the Potency Relative to ShK (WB, IL2) amounted to 8.73 fold; the WB (IFNg) IC50 was found to be 2.29 nM; the WB (IL-2) IC50 was 0.585 nM. This molecule also showed a Kv1.1 IC50 (asterisk: whole cell patch clamp) in experiment [2] of 0.411 nM.

B2: Bivalent Fc-L10-ShK[1-35] homodimer (IgG1) (Fc fusion)
chain: GGGGSGGGGSRSCIDTIPKSRCTAFQCKHSMKYRLSFCRKTCGTC
modifications: not fully specified (N-terminus, bridges); ends and bridges not checked; also: bivalent homodimer via IgG1 Fc
Take B2: in experiment [1], the Kv1.3 IC50 (asterisk: whole cell patch clamp) came to 0.015 nM; the Potency Relative to ShK (WB, IL2) stood at 5.76 fold; the WB (IFNg) IC50 is 0.32 nM; the WB (IL-2) IC50 was 0.386 nM. This molecule displayed a Kv1.1 IC50 (asterisk: whole cell patch clamp) in experiment [2] of 0.067 nM.

B3: anti-DNP antibody 3A1 (purified from hybridoma) (antibody, human IgG2, kappa, V domains shown)
VH: QVQLQESGPGLVKPSETLSLTCTVSGGSISHYYWSWIRQPPGKGLGWIGYIYYSGSTNYNPSLKSRVTISVDTSKNQFSLKLTSVTAADTAVYYCARARGDGYNYPDAFDIWGQGTMVTVSS
VL: DIQMTQSPSSVSASVGDRVTITCRASQGISNWLAWYQRKPGKAPKLLIYAASSLQSGVPSRFSGSGSGTDFTLTISSLQPEDFAAYYCQQASSFPWTFGQGTRVEIKR
For orientation: koff means the rate constant with which the complex falls apart. For orientation: kon means the rate constant with which the complex forms. Consider B3, for which, in experiment [3], the Kd is 526 nM and the koff worked out at 0.00065 s⁻¹. The kon in experiment [4] is 1200 M⁻¹ s⁻¹. Besides, in experiment [5], the Kd was 9 nM, the koff stood at 0.00031 s⁻¹ and the kon was 34000 M⁻¹ s⁻¹.

B4: anti-DNP antibody 3B1 (purified from hybridoma) (antibody, human IgG2, kappa, V domains shown)
VH: QVQLQESGPGLVKPSETLSLTCTVSGGSISSYYWSWIRQPPGKGLEWIGYIYYSGNTNSNPSLKSRVTISVDTSKNQFSLKLSSVTAADTAVYYCARTYYDSSGYYYRAFDIWGQGTMVTVSS
VL: DIQMTQSPSSLSASEGDRVTITCRASQGIRNDLGWYQQKPGKAPKRLIYAASSLQSGVPLRFSGSGSGTEFTLTISSLQPEDFATYYCLQYNSYPWTFGQGTKVEIKR
Consider B4, for which, in experiment [3], the Kd is 3 nM, the koff was 0.00036 s⁻¹ and the kon is 140000 M⁻¹ s⁻¹. In addition, in experiment [5], the Kd is 0.2 nM, the koff came out at 5.8e-05 s⁻¹ and the kon was 370000 M⁻¹ s⁻¹.

B5: anti-DNP antibody 3B1-G2 (recombinant, CHO) (antibody, human IgG2, kappa, V domains shown)
VH: B4 VH
VL: B4 VL
As for B5, in experiment [6], the Kd worked out at 0.7 nM, the koff amounted to 0.00031 s⁻¹ and the kon was 420000 M⁻¹ s⁻¹.
